The values that follow come from publication PMC8615460.

Ends that are not written are not given here.

Experiment [1] addresses full-length San1 (lysine residues changed to arginines) (Saccharomyces cerevisiae) (UniProt P22470).
Experiment [2] has as its target San1_(1–303) (lysine residues changed to arginines) (Saccharomyces cerevisiae) (UniProt P22470).
Experiment [3] shares this target. This is another data set of the same source.

B1: San1 peptide, radiolabeled (peptide)
peptide: Ac-CGSRRGSYNASSGEQMLSRTGFFLVLIVGQPLHNPVK
modifications: also: 32P phosphate added by cAMP-dependent protein kinase, residue not given here
Take B1: the multi-turnover ubiquitylation: fraction of peptide substrate ubiquitylated, 5 to 15 min, substrate to San1 ratios 6:1 to 18:1 in experiment [1] stood at 50%. Moreover, the multi-turnover ubiquitylation: fraction of peptide substrate ubiquitylated, same incubation period and 18:1 substrate to ligase ratio in experiment [2] amounted to 15%.

In experiment [3], Ac-CGSRRGSYNASSGEQMLSRTGFFLVLIVGQPLHNPVK [San1 peptide, unlabeled] had a limited proteolysis with chymotrypsin: stability of San1(1-303) with peptide substrate against without substrate of 30 fold and a limited proteolysis: fraction of radiolabeled San1(1-303) intact with chymotrypsin after 30 min, with excess peptide substrate of 50%.
